According to patent US20170258835A1:
One block for each substance: values may come before it.

Legend:
[1] = biological target: HLA-A2/NY-ESO-1; experiment: cell-based or functional assay
[2] = biological target: EGFRviii (UniProt P00533)
[3] = biological target: CD19 (UniProt P15391); experiment: cell-based or functional assay
Sequence of CD19 (P15391 20-556 limits assumed): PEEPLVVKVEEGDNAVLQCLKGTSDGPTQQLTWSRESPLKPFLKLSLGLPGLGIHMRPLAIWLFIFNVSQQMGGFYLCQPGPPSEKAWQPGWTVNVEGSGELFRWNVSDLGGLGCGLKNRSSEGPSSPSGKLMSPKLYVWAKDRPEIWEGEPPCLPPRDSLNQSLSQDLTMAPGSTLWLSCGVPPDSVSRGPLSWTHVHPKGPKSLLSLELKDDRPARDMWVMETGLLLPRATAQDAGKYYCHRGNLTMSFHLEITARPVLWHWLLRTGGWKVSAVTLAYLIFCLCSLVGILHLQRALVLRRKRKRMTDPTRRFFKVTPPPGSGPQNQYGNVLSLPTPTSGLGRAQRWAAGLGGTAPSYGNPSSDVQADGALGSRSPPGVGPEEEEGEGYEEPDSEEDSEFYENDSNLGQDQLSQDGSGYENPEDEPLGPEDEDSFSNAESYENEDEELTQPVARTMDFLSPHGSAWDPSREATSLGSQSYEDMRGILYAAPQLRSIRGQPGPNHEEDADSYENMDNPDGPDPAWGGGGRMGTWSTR

CD8/CD107a double positive cells, stimulated with Nalm6-ESO (Affi-epsilon co-electroporated, EP3 to EP6) [1]: 49.5 to 53.3%
Substance: NY-ESO-1 (1G4) TCR alpha and beta

CD107a+ share of CD8+ T cells after stimulation with K562-EGFRvIII [2]: 51.8%
Substance: MR1-BBZ

CD107a up-regulation, stimulated with K562-CD19 [3]: 81%
IFN-gamma ELISA; lowest dose of CD19 mRNA electroporated into K562 that was recognized [3]: 0.001 µg
Substance: Blinatumomab (secreted by T cells electroporated with Blinatumomab Bis-RNA) (bispecific antibody)
